experiment: soluble fraction after stress (log2 fold change); higher = more stays soluble; pooled small domains, quantitative proteomics; settings: stress: 50 degC
Method in brief: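 Pooled custom libraries of small protein domains were each held under stress at 50°C. The read-out, high-throughput quantitative proteomics, tracked how much of each protein stayed soluble. This is reported as a base-two log fold change used to indicate aggregation propensity. Higher values mean more protein remains in solution.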

Going from “HMSSVRDNGDLELVPGDRIRHDDYGEGRVTAVTGVGSKRIAHAVFDSVGERKLLIKLSPIEKI” to “HMSQDTLIGRVGVIVIGQARTGSPAQVRVKDGFGQTHYVMAEPDSEGVLKQGEAVLLVSLEGNTFKAILNP”, the “soluble fraction (log2)” value falls from -0.0293 to -0.286.

“HMAPLQDENGDLTFSYNGKTYTVNVNSEEDRNSFAEDFNKENGKKFSWFKERAGLQHYVFYDTEM” and “HMDQTKYDAIITEAKKLTAEGQYKESEEKLATIPVSDLGKPHYSIVKETVEKLNNQNNEGLKRQEEVAVE” are within 0.2 log units of each other in “soluble fraction (log2)” value: -0.19 for the first, -0.02 for the second.

Compared with “HMGMTTSILDDVIGMGPKRKKALLKAFGSFGALRNATLEEIKQTHTVPEQVAEDVYAVLVQYNSKSE”, “HMTAQLAAQERTHALDMFMGGYKFSSKPAENGVRAEFEKKNFTLEDGKFLGGDEFMKSLMENDDYKGAFV” is higher in “soluble fraction (log2)” value: -0.233 for the first, 0.375 for the second.

“HMEERDMKGSISDLVERYADQLTDEQLEEIVLGIKNGLLEEDVKSYFFLPAEDMRRIRTALEQVR” and “HMEESEMIAFATVAHRIVGKPVEAVMRSYRNRDNIPADIAAIVSSKFTFSVTMAEASYRNPKKSYQVNSII” are within 0.2 log units of each other in “soluble fraction (log2)” value: 0.00866 for the first, -0.00943 for the second.

Compared with “HMSSGTAYATDAVNVRSGPGTSYTVLGYLSRGEKVTITGTVSNGWTQIQLPGNRLGYVSSAYLSASYPS”, “HMDGNVPSVEGKPLSGAKYILETYGYKTGTVTEVNSEDVPAGIVISQNPARGTTLANGGSVNLQVSLG” is higher in “soluble fraction (log2)” value: -0.259 for the first, 0.321 for the second.

“HMSLTEDELFHALTIYANREGINIGATELKYLLTHYARNLGKLIELINQVSQAATMQKKPITIPLIKHS” and “HMHIDQVIRERRLALGLTQEELANKIGVSAPAVSKWEKRVSYPDITLLPALARILGTDVNTLLTFS” are within 0.2 log units of each other in “soluble fraction (log2)” value: -0.428 for the first, -0.365 for the second.

First: HMKQAVESAEAIFEEIARIKKLSLVKSEAEEIARKTGLQKFTIASQLLKNQHAYEMDESEIASLWDKKI
Second: HMSQISKLWRPSEDVTEILTRSGMDSEFLEGLIPEFIIYWSERADVLVSYNSKFIEHARLKWAQHSAEIKT
The “soluble fraction (log2)” value of the first is higher: 0.0237 for the first, -2.63 for the second.

Compared with “HMKISIPQEYFEIYNVLKQRPMHINEISKILKKPVSEISGTISLMEIEGYITKLTTDQYVLKKI”, “HMGGGEYTVAKGDTLWKIAAQTLGSPTRYAEIYNLNKDVIEETARGRGKRDSSNGHWLFPGTALKIPGT” is higher in “soluble fraction (log2)” value: -0.143 for the first, 0.355 for the second.

First: HMPKTATIVIDLNYADAKEIVENLQTILAGETKDISVAPHPSANQIIASGDRWEVENISTIIKQLDR
Second: HMQEAATSLNAKILAKLRENNGTLAVSDKSDPALISSLFGVSKGNFKKAIGALYKNGQIVIHADRIEL
The “soluble fraction (log2)” value of the first is higher: 0.00694 for the first, -0.436 for the second.

Going from “HMSENEVQAKVKEIVDRYAGDKSALIAILQDVQDEYRYLPKEALVSIQQQMNIPLSRVYEVATFYDAFS” to “HMTTMNSADLIKELEKAGWTLRGVKGSHHIYTHPARGGHLSVPHPKKDLGAGLARQLRKQAGL”, the “soluble fraction (log2)” value rises from -0.424 to 0.125.

First: HMDQVLHQLVEVLRRSEIRISPAETLDAFKVLRNVGIDNKSLLREALALTLAKSIHEKIIFYETFDEFFT
Second: HMETVMYLRQIKRPQGIYLAIQESYYDSSKKQSRTRTIESIGYLDNLRKEYEDPIAFFSQKAAAMTSEKKK
The “soluble fraction (log2)” value of the first is higher: -1.16 for the first, -1.51 for the second.

First: HMKKQLTISDGDWAGKVSSMLEDMGVINSASEFDKYLSDNGYSNVIKSGTYDVSPEDTFQELAEKIT
Second: HMFEMPTSLVRTLSAIAIKQPVMQSEIIKLRGAGAYDHIKELIIRELVHRKEEGRSPILTTTKKFQEYFRL
The “soluble fraction (log2)” value of the first is higher: 0.414 for the first, -2.33 for the second.

Going from “HMNVPFGFDEVNGKLVKNEEEQAIISEIKSLKNKGLSLRKIAEALNGRGIATKNGKAWTAVQIQRIA” to “HMVIDFYDPQTKVIHEIKKSSAKEEAHVWQVKYYIYLFEKEEIMGVKGVLEYPLLREIVSVNF”, the “soluble fraction (log2)” value rises from -0.0386 to 0.187.

Going from “HMYITGAVIRKLREKNNITQLQLAERLRVSDKTISKWETGKGYPDITLLEPIAKTFSVSVTELISGDI” to “HMGDKVLIQTAQRLKKDLPFASIVSRFGGDEFLIFLPGISSTERVETIVKKTVFLFIAISTTLF”, the “soluble fraction (log2)” value rises from -1.32 to -0.124.

Going from “HMVENMDEFIGRVRRLVSDRLDLLKEASDDEIRETISQVVLELSREQFLTLNEKKTVLEGVFNSMR” to “HMDRDQNVEEGQRSLKSEMGRFGLLIANMDDLAERVNYGNAEDMYAAIGAGDLRLMQVVHAAEEMLG”, the “soluble fraction (log2)” value rises from -0.399 to 0.127.

Compared with “HMKRMSKKQLSAVIEKYFSSQPGVTLTLKDIFRNLHLDTHPLKMIALDILEEMSWDDVIMKVSDTSYALNT”, “HMEDPRVTEIKNLQQDLAKKFKPTQGPASASDAVERVTAITTVMTKVAALPEDLRSEAMQPGKKM” is lower in “soluble fraction (log2)” value: 0.281 for the first, -0.322 for the second.

First: HMEANAYFDAYPDVAAEWARLSGSDEGKATLSAIGVTTPQQFAQYHYTTFGSKENRNAPVGYTP
Second: HMSSLDTLTARETQILAEMAQGKNNAAIAAAVSVSERAVEKHTNSIFAKLGLSEEKDVNRRVMAVLLFLGR
The “soluble fraction (log2)” value of the first is higher: 0.0756 for the first, -3.28 for the second.

Going from “HMTIPNGTVVNGTVLEAREAGAYLVRVAGQTLTAQANLPLLVGQHFRAVWDSSGDIPVLRLSDAEQALLGK” to “HMSESAGKAFDLLFYLAKAGETVSLARLSRETGMNKATALRYLNVLESKGVVERSKLGWTLGLSLFELGSK”, the “soluble fraction (log2)” value falls from 0.119 to -2.05.

“HMSVTDDQLRVFTNKSGTKIKAKIVEVSDDKVKLIRDDNKKFIVPINSLSEEDQDYLRDWVSNEAVEP” and “HMPTLLGYKHILSAWNPDTNTVFRTSYGYDGEYGSREEAMQALIKMIQEGGKATPRGIEESEVPIY” are within 0.2 log units of each other in “soluble fraction (log2)” value: 0.0333 for the first, -0.126 for the second.

Compared with “HMGASGVEVPDVAGMSTAQAVSSLEQKGFVVNRTESYDAGVEKGNVISQSPEGGTKAPNGSAVTIRISQGA”, “HMNGKTIEVPDITEKSIAEAQLILNQKKLRYNVVDSTRFDPAYLPFSVLTQEPEAGDEVKKNRTIYITLNP” is lower in “soluble fraction (log2)” value: 0.428 for the first, -0.0871 for the second.

First: HMKHFTYEEMELMSIYDPGTREGLIANLEEMRGYLEPDETELRELTDSALEKLRELSDADYEQLELI
Second: HMAGTRRFELVEGSSSKFWEVTVADGSYTVTYGRIGTAGGSKTTESATAEADAEKLVREKLKKGYQEAGAA
The “soluble fraction (log2)” value of the first is lower: -0.476 for the first, 0.245 for the second.

Going from “HMSKISKENEQQVIQIVQTLLLNVQDKSLITTQILNEKINLAVSLDTKYKENLDRDYIIEELIRRYSVW” to “HMSRVSVDGEEVNFEGEIPDDPSRIYELLMGALSEQSRVVVKFFVDGKDALLDEGFPSRYQMIEAESV”, the “soluble fraction (log2)” value rises from -1.12 to -0.285.

“HMKSTELSIIEALRVLGLKHGASQDSIKKSYRRLVKQHHPDLGGSADSFRKVNEAYQLLIMN” and “HMRKSNADALDGKTGIVKEEIKTGGYGYVGIDGDMWRSISESGEAIPAGTKVVVISHESIILTVKPA” are within 0.2 log units of each other in “soluble fraction (log2)” value: -0.425 for the first, -0.315 for the second.

Compared with “HMHEAILNQIRNEELMLYIGELSDAQQDVILLKYFHQMTFKEIAESFSIPISTVKTRHTAALKKLSTLWK”, “HMTETELYDEVNRLIGLHLSERDRMILIMRDRDEFEIDAIAARTGLSEGNIRLILSRARRTVREAYRNNI” is lower in “soluble fraction (log2)” value: -0.16 for the first, -3.74 for the second.

First: HMDYIITHYPDNKRFETQVDGVVAFVQYRLSGDKLDIIHTIVPPAIGGRGIAAALVKYAYDYAIENGMK
Second: HMQLTPAQHAILAHALEHSDGKIVWFPDNIKGGARKKVLDGLLNRALITTDGTDWFVAAEGYDAMGR
The “soluble fraction (log2)” value of the first is lower: -0.76 for the first, -0.227 for the second.

Going from “HMKFYKMIDESDEKIENPEIMIFQIIELVSSTTYSAIINKEPVDVETLKPYLYQTIRTIIINHQS” to “HMVEELDVQFIKLTVQGDHPWKNKKIRELSIPWDLLFVLIIRGDKSIIPNGKTTIKDGDIVVVSAPEYRG”, the “soluble fraction (log2)” value falls from 0.144 to -0.676.

Compared with “HMFELTVGTPIRVIREPYFGKLGTVTELPAQLMVVESGTEVRVLKAKIEGEGEVLVPRANVEIIATG”, “HMSVAPISYSQFESYLEQGKVASVAVGQDTIAGRFTAPVDGKSQFVTTIVNPQILDRIDKSGVEITGV” is higher in “soluble fraction (log2)” value: -0.0828 for the first, 0.176 for the second.

In the case of “HMKIPYGELIKLLNAAAPKLQDAQGWMDMEAAGQFIGSRWSYLDYGFKDWPDSFKTVHGLEIQGQRMRLA”, the “soluble fraction (log2)” value is reported as -0.452.

From the domain aggregation screens of Martell et al. (2025)
